Test results: article PMC10730688

Biological target: phosphonull human rod opsin 6A mutant (human) (UniProt P08100)

Toff in the BRET G-protein activation assay, untethered co-expression of Rod6A and ArrWT (comparison for the Rod6A-ArrWT fusions): 1240 s
Substance: human visual arrestin (rod arrestin, arrestin-1), wildtype (from UniProt P10523 1-405) (natural protein)
